Numbering of substitutions follows the chain as printed. Names and notes keep the numbering of the source.
Key:
Test in all cases: cell-based or functional assay
[1] = target: HIV-1 strain 211-9 envelope (gp120) (HIV-1)
[2] = target: HIV-1 strain Q842.d12 envelope (gp120) (HIV-1)
[3] = target: HIV-1 Env of strain Ce2060_G9 (HIV-1)
[4] = target: HIV-1 Env of strain C1080.c03 (HIV-1)
[5] = target: HIV-1 Env of strain 1054_07_TC4_1499 (HIV-1)
[6] = target: HIV-1 strain CAAN5342.A2 envelope (gp120) (HIV-1)
[7] = target: HIV-1 Env of strain 3817.v2.c59 (HIV-1)
[8] = target: HIV-1 strain P0402_c2_11 envelope (gp120) (HIV-1)
[9] = target: HIV-1 Env of strain 1006_11_C3_1601 (HIV-1)
[10] = target: HIV-1 Env of strain 3016.v5.c45 (HIV-1)
[11] = target: HIV-1 strain 703357.C02 envelope (gp120) (HIV-1)
[12] = target: HIV-1 strain CNE30 envelope (gp120) (HIV-1)
[13] = target: HIV-1 strain R1166.c01 envelope (gp120) (HIV-1)
[14] = target: HIV-1 strain HIV-16845-2.22 envelope (gp120) (HIV-1)
[15] = target: HIV-1 strain 3103.v3.c10 envelope (gp120) (HIV-1)
[16] = target: HIV-1 Env of strain T257-31 (HIV-1)
[17] = target: HIV-1 Env of strain ZM249M.PL1 (HIV-1)
[18] = target: HIV-1 strain CAP210.2.00.E8 envelope (gp120) (HIV-1)
[19] = target: HIV-1 strain T250-4 envelope (gp120) (HIV-1)
[20] = target: HIV-1 strain 1006_11_C3_1601 envelope (gp120) (HIV-1)
[21] = target: HIV-1 strain ZM197M.PB7 envelope (gp120) (HIV-1)
[22] = target: HIV-1 Env of strain Q259.d2.17 (HIV-1)
[23] = target: HIV-1 Env of strain X1254_c3 (HIV-1)
[24] = target: HIV-1 Env of strain 6480.v4.c25 (HIV-1)
[25] = target: HIV-1 Env of strain Q461.e2 (HIV-1)
[26] = target: HIV-1 strain CNE20 envelope (gp120) (HIV-1)
[27] = target: HIV-1 Env of strain TRO.11 (HIV-1)
[28] = target: HIV-1 strain Ce0682_E4 envelope (gp120) (HIV-1)
[29] = target: HIV-1 strain WEAU_d15_410_787 envelope (gp120) (HIV-1)
[30] = target: HIV-1 Env of strain 211-9 (HIV-1)
[31] = target: HIV-1 strain Ce2010_F5 envelope (gp120) (HIV-1)
[32] = target: HIV-1 strain ZM233M.PB6 envelope (gp120) (HIV-1)
[33] = target: HIV-1 Env of strain C2101.c01 (HIV-1)
[34] = target: HIV-1 strain X2131_C1_B5 envelope (gp120) (HIV-1)
[35] = target: HIV-1 Env of strain HIV-16845-2.22 (HIV-1)
[36] = target: HIV-1 Env of strain WITO4160.33 (HIV-1)
[37] = target: HIV-1 strain Ce2060_G9 envelope (gp120) (HIV-1)
[38] = target: HIV-1 strain ZM135M.PL10a envelope (gp120) (HIV-1)
[39] = target: HIV-1 Env of strain 6535.3 (HIV-1)
[40] = target: HIV-1 strain ZM249M.PL1 envelope (gp120) (HIV-1)
[41] = target: HIV-1 strain ZM53M.PB12 envelope (gp120) (HIV-1)
[42] = target: HIV-1 Env of strain SC422661.8 (HIV-1)
[43] = target: HIV-1 strain AC10.0.29 envelope (gp120) (HIV-1)
[44] = target: HIV-1 strain X1193_c1 envelope (gp120) (HIV-1)
[45] = target: HIV-1 Env of strain T251-18 (HIV-1)
[46] = target: HIV-1 Env of strain 62357_14_D3_4589 (HIV-1)
[47] = target: HIV-1 Env of strain ZM197M.PB7 (HIV-1)
[48] = target: HIV-1 strain SC422661.8 envelope (gp120) (HIV-1)
[49] = target: HIV-1 strain ZM109F.PB4 envelope (gp120) (HIV-1)

B1: NIH45-46^G54Y IgG (antibody, name in Kabat numbering, V domains shown)
VH: QVRLSQSGGQMKKPGESMRLSCRASGYEFLNCPINWIRLAPGRRPEWMGWLKPRYGAVNYARKFQGRVTMTRDVYSDTAFLELRSLTSDDTAVYFCTRGKYCTARDYYNWDFEHWGRGAPVTVSS
VL: EIVLTQSPATLSLSPGETAIISCRTSQSGSLAWYQQRPGQAPRLVIYSGSTRAAGIPDRFSGSRWGADYNLSISNLESGDFGVYYCQQYEFFGQGTKVQVDI
[1]
  neutralization IC80: > 50 µg/mL
[2]
  neutralization IC80: 0.045 µg/mL
[3]
  neutralization IC50: 0.021 µg/mL
[4]
  neutralization IC50: 0.29 µg/mL
[5]
  neutralization IC50: 0.064 µg/mL
[6]
  neutralization IC80: 0.27 µg/mL
[7]
  neutralization IC50: > 50 µg/mL
[8]
  neutralization IC80: 0.049 µg/mL
[9]
  neutralization IC50: 0.005 µg/mL
[10]
  neutralization IC50: 17.9 µg/mL
[11]
  neutralization IC80: 30.6 µg/mL
[12]
  neutralization IC80: 0.263 µg/mL
[13]
  neutralization IC80: 0.84 µg/mL
[14]
  neutralization IC80: 2.75 µg/mL
[15]
  neutralization IC80: 0.81 µg/mL
[16]
  neutralization IC50: 0.18 µg/mL
[17]
  neutralization IC50: 0.003 µg/mL
[18]
  neutralization IC80: > 50 µg/mL
[19]
  neutralization IC80: > 50 µg/mL
[20]
  neutralization IC80: 0.021 µg/mL
[21]
  neutralization IC80: 0.21 µg/mL
[22]
  neutralization IC50: 0.009 µg/mL
[23]
  neutralization IC50: 0.013 µg/mL
[24]
  neutralization IC50: 0.018 µg/mL
[25]
  neutralization IC50: 0.023 µg/mL
[26]
  neutralization IC80: 2.4 µg/mL
[27]
  neutralization IC50: 0.08 µg/mL
[28]
  neutralization IC80: 0.065 µg/mL
[29]
  neutralization IC80: 0.008 µg/mL
[30]
  neutralization IC50: > 50 µg/mL
[31]
  neutralization IC80: 0.235 µg/mL
[32]
  neutralization IC80: 0.78 µg/mL
[33]
  neutralization IC50: 0.09 µg/mL
[34]
  neutralization IC80: 0.39 µg/mL
[35]
  neutralization IC50: 0.59 µg/mL
[36]
  neutralization IC50: 0.03 µg/mL
[37]
  neutralization IC80: 0.068 µg/mL
[38]
  neutralization IC80: 0.3 µg/mL
[39]
  neutralization IC50: 0.08 µg/mL
[40]
  neutralization IC80: 0.011 µg/mL
[41]
  neutralization IC80: 0.22 µg/mL
[42]
  neutralization IC50: 0.04 µg/mL
[43]
  neutralization IC80: 0.9 µg/mL
[44]
  neutralization IC80: 0.024 µg/mL
[45]
  neutralization IC50: 0.35 µg/mL
[46]
  neutralization IC50: 0.03 µg/mL
[47]
  neutralization IC50: 0.07 µg/mL
[48]
  neutralization IC80: 0.09 µg/mL
[49]
  neutralization IC80: 0.168 µg/mL

B2: NIH45-46^G54W(HC), S28Y(LC) (antibody, V domains shown)
VH: B1 VH with Y55W
VL: B1 VL with S28Y
[3]
  IC50, pseudovirus neutralization: 0.014 µg/mL
[4]
  IC50, pseudovirus neutralization: 0.154 µg/mL
[5]
  IC50, pseudovirus neutralization: 0.104 µg/mL
[7]
  IC50, pseudovirus neutralization: 5.14 µg/mL
[9]
  IC50, pseudovirus neutralization: 0.009 µg/mL
[10]
  IC50, pseudovirus neutralization: 0.006 µg/mL
[16]
  IC50, pseudovirus neutralization: 0.126 µg/mL
[17]
  IC50, pseudovirus neutralization: 0.001 µg/mL
[22]
  IC50, pseudovirus neutralization: 0.001 µg/mL
[23]
  IC50, pseudovirus neutralization: 0.006 µg/mL
[24]
  IC50, pseudovirus neutralization: 0.016 µg/mL
[25]
  IC50, pseudovirus neutralization: 0.034 µg/mL
[27]
  IC50, pseudovirus neutralization: 0.02 µg/mL
[30]
  IC50, pseudovirus neutralization: 0.253 µg/mL
[33]
  IC50, pseudovirus neutralization: 0.044 µg/mL
[35]
  IC50, pseudovirus neutralization: 0.38 µg/mL
[36]
  IC50, pseudovirus neutralization: 0.015 µg/mL
[39]
  IC50, pseudovirus neutralization: 0.015 µg/mL
[42]
  IC50, pseudovirus neutralization: 0.024 µg/mL
[45]
  IC50, pseudovirus neutralization: 0.336 µg/mL
[46]
  IC50, pseudovirus neutralization: 0.015 µg/mL
[47]
  IC50, pseudovirus neutralization: 0.074 µg/mL

B3: NIH45-46^G54W (antibody, V domains shown)
VH: B1 VH with Y55W
VL: B1 VL
[3]
  IC50, pseudovirus neutralization: 0.005 µg/mL
[4]
  IC50, pseudovirus neutralization: 0.2 µg/mL
[5]
  IC50, pseudovirus neutralization: 0.04 µg/mL
[7]
  IC50, pseudovirus neutralization: > 50 µg/mL
[9]
  IC50, pseudovirus neutralization: 0.001 µg/mL
[10]
  IC50, pseudovirus neutralization: 1.47 µg/mL
[16]
  IC50, pseudovirus neutralization: 0.13 µg/mL
[17]
  IC50, pseudovirus neutralization: 0.002 µg/mL
[22]
  IC50, pseudovirus neutralization: 0.001 µg/mL
[23]
  IC50, pseudovirus neutralization: 0.002 µg/mL
[24]
  IC50, pseudovirus neutralization: 0.004 µg/mL
[25]
  IC50, pseudovirus neutralization: 0.009 µg/mL
[27]
  IC50, pseudovirus neutralization: 0.04 µg/mL
[30]
  IC50, pseudovirus neutralization: 16.4 µg/mL
[33]
  IC50, pseudovirus neutralization: 0.04 µg/mL
[35]
  IC50, pseudovirus neutralization: 0.45 µg/mL
[36]
  IC50, pseudovirus neutralization: 0.01 µg/mL
[39]
  IC50, pseudovirus neutralization: 0.03 µg/mL
[42]
  IC50, pseudovirus neutralization: 0.02 µg/mL
[45]
  IC50, pseudovirus neutralization: 0.26 µg/mL
[46]
  IC50, pseudovirus neutralization: 0.02 µg/mL
[47]
  IC50, pseudovirus neutralization: 0.04 µg/mL
